Assay results: article PMC13287468, “Newton’s cradle-like allosteric mechanism explains regulatory RsmE RNA binding”

Tests used:
[1] = molecular target: T1, RsmE dimer (P64W, C-terminal His6) (UniProt P0DPC3 1-64, P64W); assay: ITC; first site (Kd1); 30 mM NaCl; text: likely upper bound, true value may be <1 nM; 30 mM NaCl, 50 mM potassium phosphate pH 7.2; ITC at 298 K (NaCl varied in Supp. Fig. 8), RNA titrated into 10 uM RsmE monomer, sequential two-site model; NMR at 303/313 K with 3% D2O; settings: protein: recombinant; tags: C-terminal 6xHis; chain copies: 2; hairpin, hexaloop
T1 sequence: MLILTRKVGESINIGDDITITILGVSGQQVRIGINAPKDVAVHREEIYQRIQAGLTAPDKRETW

[2] = molecular target: T1, RsmE dimer (P64W, C-terminal His6); assay: ITC; apo RsmE dimer, first site; 30 mM NaCl, 50 mM potassium phosphate pH 7.2; ITC at 298 K (NaCl varied in Supp. Fig. 8), RNA titrated into 10 uM RsmE monomer, sequential two-site model; NMR at 303/313 K with 3% D2O; settings: protein: recombinant; tags: C-terminal 6xHis; chain copies: 2; hairpin
[3] = molecular target: T1, RsmE dimer (P64W, C-terminal His6); assay: NMR; 1:1 semi-holo complex; no minor conformations; 30 mM NaCl, 50 mM potassium phosphate pH 7.2; ITC at 298 K (NaCl varied in Supp. Fig. 8), RNA titrated into 10 uM RsmE monomer, sequential two-site model; NMR at 303/313 K with 3% D2O; settings: protein: recombinant; tags: C-terminal 6xHis; chain copies: 2; hairpin, 4 bp stem
RsmE P64W [4] = molecular target: T2, RsmE P64W (Pseudomonas protegens, UniProt P0DPC3, P64W); assay: ITC; 50 mM potassium phosphate pH 7.2, 30 mM NaCl, 298 K; 10 uM monomer in the cell; settings: tags: C-His6 (kept); chain copies: 2; hairpin; 1 RNA per protein dimer
T2 sequence: T1 sequence

RsmE P64W [5] = molecular target: T2, RsmE P64W; assay: ITC; other site of the dimer holds one SL2 RNA; 50 mM potassium phosphate pH 7.2, 100 mM NaCl, 298 K; 10 uM monomer in the cell; settings: tags: C-His6 (kept); chain copies: 2; hairpin; 2 copies of the RNA per protein dimer, value for the second
RsmE P64W [6] = molecular target: T2, RsmE P64W; assay: ITC; other site of the dimer holds one SL2 RNA; 50 mM potassium phosphate pH 7.2, 30 mM NaCl, 298 K; 10 uM monomer in the cell; settings: tags: C-His6 (kept), chain copies: 2
RsmE P64W [7] = molecular target: T2, RsmE P64W; assay: ITC; other site of the dimer holds one SL2 RNA; 50 mM potassium phosphate pH 7.2, 300 mM NaCl, 298 K; 10 uM monomer in the cell; settings: tags: C-His6 (kept); chain copies: 2; hairpin; 2 copies of the RNA per protein dimer, value for the second
RsmE P64W [8] = molecular target: T2, RsmE P64W; assay: ITC; 50 mM potassium phosphate pH 7.2, 10 mM NaCl, 298 K; 10 uM monomer in the cell; settings: tags: C-His6 (kept); chain copies: 2; hairpin; 1 RNA per protein dimer
RsmE P64W [9] = molecular target: T2, RsmE P64W; assay: ITC; 50 mM potassium phosphate pH 7.2, 300 mM NaCl, 298 K; 10 uM monomer in the cell; settings: tags: C-His6 (kept); chain copies: 2; hairpin; 1 RNA per protein dimer
RsmE P64W [10] = molecular target: T2, RsmE P64W; assay: ITC; other site of the dimer holds one SL2 RNA; 50 mM potassium phosphate pH 7.2, 10 mM NaCl, 298 K; 10 uM monomer in the cell; settings: tags: C-His6 (kept); chain copies: 2; hairpin; 2 copies of the RNA per protein dimer, value for the second
RsmE P64W [11] = molecular target: T2, RsmE P64W; assay: ITC; 50 mM potassium phosphate pH 7.2, 100 mM NaCl, 298 K; 10 uM monomer in the cell; settings: tags: C-His6 (kept); chain copies: 2; hairpin; 1 RNA per protein dimer
RsmE P64W [12] = molecular target: T2, RsmE P64W; assay: ITC; other site of the dimer holds one 4bpSL2 RNA; 50 mM potassium phosphate pH 7.2, 30 mM NaCl, 298 K; 10 uM monomer in the cell; settings: tags: C-His6 (kept); chain copies: 2; hairpin; 2 copies of the RNA per protein dimer, value for the second
RsmE P64W [13] = molecular target: T2, RsmE P64W; assay: ITC; other site of the dimer holds one hcnA RNA; 50 mM potassium phosphate pH 7.2, 30 mM NaCl, 298 K; 10 uM monomer in the cell; settings: tags: C-His6 (kept); chain copies: 2; hairpin; 2 copies of the RNA per protein dimer, value for the second

GGGCCAUCAAGGACGAUGGUCC (structured_RNA) [SL2 RNA (RsmZ)] was tested, and the Kd [1] was 1.4 nM.

GGGCUUCACGGAUGAAGCCC (structured_RNA) [hcnA SD RNA] gave a Kd [2] of ~10 nM.

GGAUCAAGGACGAUCC (structured_RNA) [4bpSL2 RNA]: binds [3].

With GGGCCAUCAAGGACGAUGGUCC (ssRNA, T7 transcript (5' triphosphate expected)) [SL2] the Kd (RsmE P64W [4]) was < 1.45 nM, the Kd (RsmE P64W [5]) was 64.2 ± 3.23 nM and the Kd (RsmE P64W [6]; hairpin, 2 copies of the RNA per protein dimer, value for the second) was 31.1 ± 2.78 nM. The Kd (RsmE P64W [7]) was 118 ± 4.14 nM, the Kd (RsmE P64W [8]) was < 0.943 nM and the Kd (RsmE P64W [9]) was 15.4 ± 1.51 nM. The Kd (RsmE P64W [10]) was 22.3 ± 2.06 nM and the Kd (RsmE P64W [11]) was 5.71 ± 1.35 nM.

GGAUCAAGGACGAUCC (ssRNA, T7 transcript (5' triphosphate expected)) [4bpSL2] was tested, and the Kd (RsmE P64W [4]) was 21.6 ± 2.56 nM and the Kd (RsmE P64W [12]) was 97.2 ± 3.58 nM.

GGGCUUCACGGAUGAAGCCC (ssRNA, T7 transcript (5' triphosphate expected)) gave a Kd (RsmE P64W [4]) of 8.67 ± 2.02 nM and a Kd (RsmE P64W [13]) of 218 ± 12.8 nM.

B1: hcnA SD (ssRNA)
RNA 1: GGGCUUCACGGAUGAAGCCC
RNA 2: GGGCCAUCAAGGACGAUGGUCC
modifications: T7 transcript (5' triphosphate expected)
For B1, the Kd (RsmE P64W [6]; two separate hairpins, one per site) was 297 ± 11.4 nM.
